The values that follow come from paper PMC12170339, “Cryo-EM structure of the NDH–PSI–LHCI supercomplex from Spinacia oleracea” (Nature Structural & Molecular Biology, 2025).

The chains are these.
B1: NdhC (natural protein, S. oleracea, UniProt Q9M3L9 1-120, looked up)
chain: MFLLYEYDIFWAFLIISSVIPILAFLFSGILAPISKGPEKLSSYESGIEPMGDAWLQFRIRYYMFALVFVVFDVETVFLYPWAMSFDILGVSVFIEALIFVLILIVGLVYAWRKGALEWS
notes: NdhC, SubM module of chloroplast NDH, S. oleracea; source: purified from spinach (S. oleracea) leaves as part of the NDH–PSI–LHCI-2 supercomplex
B2: NdhA (natural protein, S. oleracea, UniProt Q9M3I6 1-365, looked up)
chain: MIIDTTTTKVQAINSFSRLEFLKEVYETIWMLFPILILVLGITIGVLVIVWLEREISASIQQRIGPEYAGPLGILQALADGTKLLFKENLLPSRGDTYLFSIGPSIAVISILLGYLIIPFGSRLVLADLSIGVFLWIAVSSIAPIGLLMSGYGSNNKYSFLGGLRAAAQSISYEIPLTLCVLSISLLSNSSSTVDIVEAQSKYGFWGWNLWRQPIGFIVFIISSLAECERLPFDLPEAEEELVAGYQTEYSGIKFGLFYVASYLNLLISSLFVTVLYLGGWNLSIPYIFISEFFEINKIDGVFGTTIGIFITLAKTFLFLFIPITTRWTLPRLRMDQLLNLGWKFLLPISLGNLLLTTSSQLFSL
notes: NdhA, SubM module of chloroplast NDH, S. oleracea; also called NhdA; source: purified from spinach (S. oleracea) leaves as part of the NDH–PSI–LHCI-2 supercomplex

Holding throughout (experiment): cryo-EM structure; single-particle cryo-EM of the endogenous NDH–PSI–LHCI-2 supercomplex co-purified from spinach stromal lamellae in t-PCCαM; buffer A: 30 mM HEPES pH 7.8, 2 mM MgCl2, 2 mM KCl, 0.5 mM Na2-EDTA, 100 mM NaCl, 2 mM DTT, 0.04% t-PCCαM; 38,385 particles; 3.0–3.3 Å
Assay [1] has as its target NADPH dehydrogenase (NDH) complex (S. oleracea) (UniProt Q9M3I6).
In assay [2] the target is T1, NdhK (S. oleracea, UniProt Q9M3M0 1-227).
T1 construct: NdhK, SubA module of chloroplast NDH, S. oleracea; source: purified from spinach (S. oleracea) leaves as part of the NDH–PSI–LHCI-2 supercomplex
T1 sequence (looked up): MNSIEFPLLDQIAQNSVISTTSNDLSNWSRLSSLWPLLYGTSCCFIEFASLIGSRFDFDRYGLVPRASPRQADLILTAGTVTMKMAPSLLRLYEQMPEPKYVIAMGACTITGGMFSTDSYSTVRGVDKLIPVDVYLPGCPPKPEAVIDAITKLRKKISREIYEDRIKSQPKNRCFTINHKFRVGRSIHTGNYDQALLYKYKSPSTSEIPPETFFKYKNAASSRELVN
As to conditions: both partners purified.

The target in assay [3] is B2. The following applies: both partners purified.
Assay [4] addresses T2, NdhH (S. oleracea, UniProt Q9M3I5 1-393).
T2 construct: NdhH, SubA module of chloroplast NDH, S. oleracea; source: purified from spinach (S. oleracea) leaves as part of the NDH–PSI–LHCI-2 supercomplex
T2 sequence (looked up): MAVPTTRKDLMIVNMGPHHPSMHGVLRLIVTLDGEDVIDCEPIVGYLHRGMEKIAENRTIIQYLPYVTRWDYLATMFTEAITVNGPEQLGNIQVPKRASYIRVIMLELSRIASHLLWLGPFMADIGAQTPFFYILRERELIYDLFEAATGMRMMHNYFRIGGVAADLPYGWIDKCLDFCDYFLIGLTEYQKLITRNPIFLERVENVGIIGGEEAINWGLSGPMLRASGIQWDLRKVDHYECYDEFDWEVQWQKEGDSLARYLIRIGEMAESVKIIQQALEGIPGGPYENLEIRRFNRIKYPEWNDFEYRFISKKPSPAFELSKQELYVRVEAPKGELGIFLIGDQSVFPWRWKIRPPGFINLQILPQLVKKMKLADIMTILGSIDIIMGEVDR
The following applies: both partners purified.

“PSI–LHCI-2 (photosystem I–light-harvesting complex I) (from UniProt P06511 1-750; P06512 1-734; P10098 1-81; P12353 51-212; P12355 78-231; P12357 70-167; P22179 50-144; P17228 1-33; P17230 1-44; P14627 1-29; Q41385 48-216)”: the stoichiometry N (NDH per PSI–LHCI) in assay [1] amounted to 1.

Regarding B1, the binding result in assay [2], in assay [3] and in assay [4] was “binds” in each case.

On to B2, for which, in assay [4], the binding result is recorded as “binds”.
